Target: Steroid receptor coactivator 3 (SRC-3), recombinant, wild type (UniProt Q9Y6Q9)
Assay: cryo-EM structure

Chain of UniProt Q9Y6Q9 (Q9Y6Q9 whole entry): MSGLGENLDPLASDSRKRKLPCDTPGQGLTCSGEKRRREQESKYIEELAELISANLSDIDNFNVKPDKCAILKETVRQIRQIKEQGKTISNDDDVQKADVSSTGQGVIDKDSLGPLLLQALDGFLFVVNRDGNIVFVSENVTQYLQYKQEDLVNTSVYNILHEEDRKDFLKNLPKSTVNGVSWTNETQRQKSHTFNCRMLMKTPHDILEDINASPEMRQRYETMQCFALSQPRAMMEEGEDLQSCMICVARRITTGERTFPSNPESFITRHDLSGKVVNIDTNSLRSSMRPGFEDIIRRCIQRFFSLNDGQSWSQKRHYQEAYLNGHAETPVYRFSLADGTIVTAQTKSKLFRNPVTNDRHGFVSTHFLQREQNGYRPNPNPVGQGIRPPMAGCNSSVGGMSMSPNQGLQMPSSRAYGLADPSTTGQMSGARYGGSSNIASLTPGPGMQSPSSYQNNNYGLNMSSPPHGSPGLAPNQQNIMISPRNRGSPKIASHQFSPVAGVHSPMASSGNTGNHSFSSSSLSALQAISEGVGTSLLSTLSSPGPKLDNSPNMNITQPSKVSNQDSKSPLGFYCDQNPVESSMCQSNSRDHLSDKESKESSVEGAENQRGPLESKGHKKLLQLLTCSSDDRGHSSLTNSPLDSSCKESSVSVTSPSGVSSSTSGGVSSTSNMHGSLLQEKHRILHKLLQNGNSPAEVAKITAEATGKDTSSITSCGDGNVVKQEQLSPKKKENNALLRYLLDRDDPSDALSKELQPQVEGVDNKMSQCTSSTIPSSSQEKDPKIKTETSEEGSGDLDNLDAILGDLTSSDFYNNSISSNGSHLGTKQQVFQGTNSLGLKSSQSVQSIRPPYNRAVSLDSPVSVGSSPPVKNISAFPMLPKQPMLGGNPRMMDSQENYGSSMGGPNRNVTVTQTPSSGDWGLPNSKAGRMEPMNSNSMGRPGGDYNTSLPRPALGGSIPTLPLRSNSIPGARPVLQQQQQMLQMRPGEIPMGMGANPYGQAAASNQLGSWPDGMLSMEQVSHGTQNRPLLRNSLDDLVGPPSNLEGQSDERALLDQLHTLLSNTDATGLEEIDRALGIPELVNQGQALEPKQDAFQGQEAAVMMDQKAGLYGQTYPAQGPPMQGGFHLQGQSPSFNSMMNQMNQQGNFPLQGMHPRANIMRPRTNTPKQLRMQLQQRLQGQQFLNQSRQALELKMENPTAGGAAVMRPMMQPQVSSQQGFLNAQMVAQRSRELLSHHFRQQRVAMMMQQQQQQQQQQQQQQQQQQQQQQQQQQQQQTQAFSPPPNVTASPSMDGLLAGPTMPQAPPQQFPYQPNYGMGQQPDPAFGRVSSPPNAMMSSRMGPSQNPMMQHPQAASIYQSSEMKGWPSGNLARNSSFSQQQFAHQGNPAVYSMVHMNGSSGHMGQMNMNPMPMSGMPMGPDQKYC

stoichiometry N (p300 molecule per two SRC-3): 1
Substance: p300, recombinant, Q09472 1-2414
